US20230235070A1 (Pfizer, published 2023)

Target: T1, TNF-like ligand 1A (TL1A) (human, UniProt O95150 72-251)
T1 construct: Endogenous protein measured in patients' serum and biopsies by immunoprecipitation LC-MS/MS; also called TNFSF15; soluble TL1A
T1 sequence (looked up): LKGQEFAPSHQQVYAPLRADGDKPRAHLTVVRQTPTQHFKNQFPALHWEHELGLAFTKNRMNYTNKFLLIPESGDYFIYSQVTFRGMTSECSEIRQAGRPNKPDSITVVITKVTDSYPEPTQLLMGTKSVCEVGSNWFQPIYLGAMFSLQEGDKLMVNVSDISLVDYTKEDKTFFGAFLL
Assay: total soluble TL1A in serum of treated participants, immunoprecipitation LC-MS/MS (in vivo target engagement)
Description: An Immunoprecipitation LC-MS/MS assay has been developed and validated to measure total soluble TL1A in human serum. Total soluble TL1A is isolated from human serum using immuno-enrichment technology. The samples are incubated and shaken with a biotinylated anti-TL1A capture reagent at 4° C. overnight. Dynabeads MyOne C1 streptavidin-coupled magnetic beads are then added to each sample and incubated at room temperature for 1 h to extract TL1A bound to biotinylated capture antibody. The beads are then washed three times, followed by elution of total TL1A from the beads under acidic conditions. After addition of the extended sequence stable isotope labeled peptide (internal standard) to each sample, trypsin digestion is performed at 37° C. overnight. All sample processing is performed in a 96-well format on an automated liquid handling robot (Microlab STAR, Hamilton, Bonaduz, Switzerland). A 120 μL of the sample extract is injected onto a three-dimensional Dionex Ultimate 3000 nano-LC system, comprising a conventional flow immunoaffinity capture with custom 2.1 mm ID anti-peptide antibody column, and elution to 300 μm ID C18 trap column and 75 μm ID nano LC analytical column. […] One selected reaction monitoring transition for the signature peptide is used to quantify TL1A in the positive ion mode, and all data are normalized to the internal standard response. […]

binding result: binds
B1: PF-06480605 (antibody, human IgG1, kappa, V domains shown)
VH: QVQLVQSGAEVKKPGASVKVSCKASGYDFTYYGISWVRQAPGQGLEWMGWISTYNGNTHYARMLQGRVTMTTDTSTRTAYMELRSLRSDDTAVYYCARENYYGSGAYRGGMDVWGQGTTVTVSS
VL: EIVLTQSPATLSLSPGERATLSCRASQSVSSYLAWYQQKPGQAPRLLIYDASNRATGIPARFSGSGSGTDFTLTISSLEPEDFAVYYCQQRSNWPWTFGQGTKVEIKR
notes: The embodiments and claims number differently (1 = VH, 2 = VL, 9 = HC, 10 = LC); also called anti-TL1A
